T1: murine ApoE (mouse, UniProt P08226 19-311)
T1 sequence (looked up): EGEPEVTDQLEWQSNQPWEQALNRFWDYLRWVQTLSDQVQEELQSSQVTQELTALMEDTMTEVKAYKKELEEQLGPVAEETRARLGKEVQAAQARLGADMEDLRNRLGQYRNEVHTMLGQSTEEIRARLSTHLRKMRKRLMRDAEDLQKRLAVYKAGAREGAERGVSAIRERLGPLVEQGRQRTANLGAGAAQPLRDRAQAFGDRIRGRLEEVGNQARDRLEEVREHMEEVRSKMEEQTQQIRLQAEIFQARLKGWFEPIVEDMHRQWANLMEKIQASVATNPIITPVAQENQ

T2: ApoE4 amino acids 1-164, expressed on yeast (human, UniProt P02649 19-182)
T2 construct: with myc tag, on yeast cells; range counts on the mature protein; also called up to helix 4; not shown: myc tag and yeast surface-display partner
T2 chain: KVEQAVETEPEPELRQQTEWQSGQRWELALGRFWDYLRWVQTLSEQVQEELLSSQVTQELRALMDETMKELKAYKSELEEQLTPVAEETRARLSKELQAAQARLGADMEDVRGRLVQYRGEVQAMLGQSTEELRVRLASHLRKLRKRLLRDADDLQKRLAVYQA

T3: ApoE4 amino acids 1-210, expressed on yeast (human, UniProt P02649 19-228)
T3 construct: with myc tag, on yeast cells; range counts on the mature protein; also called N terminal domain; not shown: myc tag and yeast surface-display partner
T3 chain: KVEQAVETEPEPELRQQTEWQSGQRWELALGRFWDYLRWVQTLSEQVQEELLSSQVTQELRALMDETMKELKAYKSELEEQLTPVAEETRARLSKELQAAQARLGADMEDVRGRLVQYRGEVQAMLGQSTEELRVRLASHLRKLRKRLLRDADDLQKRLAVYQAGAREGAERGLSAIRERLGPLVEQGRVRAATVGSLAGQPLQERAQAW

T4: ApoE4 amino acids 24-164, expressed on yeast (human, UniProt P02649 42-182)
T4 construct: with myc tag, on yeast cells; range counts on the mature protein; also called helix1 + 2 + 3 + 4
T4 chain: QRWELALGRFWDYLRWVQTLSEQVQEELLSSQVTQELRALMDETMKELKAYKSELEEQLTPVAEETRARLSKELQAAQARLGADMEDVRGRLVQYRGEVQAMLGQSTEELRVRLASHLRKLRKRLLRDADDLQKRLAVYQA

T5: ApoE4 amino acids 54-164, expressed on yeast (human, UniProt P02649 72-182)
T5 construct: with myc tag, on yeast cells; expression in yeast printed as Low; range counts on the mature protein; also called helix2 + 3 + 4
T5 chain: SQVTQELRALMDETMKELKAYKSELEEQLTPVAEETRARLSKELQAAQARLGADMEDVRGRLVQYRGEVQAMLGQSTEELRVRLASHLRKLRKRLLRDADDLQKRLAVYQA

T6: ApoE4 amino acids 1-132, expressed on yeast (human, UniProt P02649 19-150)
T6 construct: with myc tag, on yeast cells; range counts on the mature protein; also called up to helix 3; not shown: myc tag and yeast surface-display partner
T6 chain: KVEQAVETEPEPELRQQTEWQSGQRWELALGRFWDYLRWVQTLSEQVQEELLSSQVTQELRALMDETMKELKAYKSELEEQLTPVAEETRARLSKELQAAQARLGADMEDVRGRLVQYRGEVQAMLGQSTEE

T7: ApoE4 amino acids 24-125, expressed on yeast (human, UniProt P02649 42-143)
T7 construct: with myc tag, on yeast cells; range counts on the mature protein; also called helix1 + 2 + 3
T7 chain: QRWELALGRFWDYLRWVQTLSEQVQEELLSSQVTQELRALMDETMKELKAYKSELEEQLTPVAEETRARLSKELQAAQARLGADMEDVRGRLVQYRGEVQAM

B1: HJ152 (antibody, V domains shown)
VH: EVKLEESGGGLVQPGGSMKLSCAASGFSFSDAWMDWVRQSPEKGLEWVAEIRNKADNHATFYAESVKGRFTISRDDSKSSVYLQMNSLRAEDSGIYYCLLWDYWGQGTTLTVSS
VL: DIVMSQSPSSLAVSAGEKVTMSCKSSQSLLNSRTRKHFLAWYQQKPGQSPKVLIYWASSRESGVPDRFTGSGSGTDFTLTISSVQAEDLAVYYCKQSCNLPWTFGGGTKLEIKR
notes: murine monoclonal antibody from hybridoma; also called HJ152B (biotinylated)
B2: HJ155 (antibody, V domains shown)
VH: RVQLQQSGPGLVKPGASVKISCKASGYTFTDYYINWVRQRPGQGLEWIGWIFPGSGITYYNEKFKGKATLTVDRSSSTAYMLLSSLTSEDSAVYFCARYAYGSPFAYWGQGTLVTVSA
VL: DVLMTQTPLSLPVSLGDQASISCRSSQSIVHSNGNTYLEWYLQKPGQSPKLLIYKVSNRFSGVPDRFSGSGSGTDFTLKISRVEAEDLGVYYCFQGSHVPYTFGGGTKLEIKR
notes: murine monoclonal antibody from hybridoma; also called HJ155B (biotinylated)
B3: HJ1526 (antibody, V domains shown)
VH: QVQLQQPGTALVKPGASVKLSCKSSGYTFTDYWVHWVKQRPGQGLEWIGNINPRNGGINYNENFKGKAILTVDRSFSIAYMQLNSLTSEDSAVYYCARPGATVVHRTPWFAHWGQGTLVTVSA
VL: EIVLTQSPALMAASPGEKVTITCSVSSSISSSNLHWFQQKSETSPKPWIFGTSYLASGVPVRFSGSGSGTSYSLTISSMEAEDAATYYCQQWNSYPLTFGAGTKLELR
notes: murine monoclonal antibody from hybridoma

How the values were obtained:
murine ApoE [1] = molecular target: T1, murine ApoE; test: Western blot of mouse brain lysates
Description: Brain lysates from apoE KO mice or mice expressing human apoE3, human apoE4 or murine apoE were immunoblotted with HJ151, HJ152, HJ153, and HJ154. A commercial apoE antibody GA-50 was used as a positive control.

[2] = molecular target: T2, ApoE4 amino acids 1-164, expressed on …; test: yeast display of myc-tagged ApoE4 fragment, antibody staining
Procedure: (§1) Epitope binding of various anti-ApoE antibodies was evaluated multiple ways. Different sequences of human ApoE were expressed on the surface of yeast by yeast display using different plasmids. Different anti-ApoE antibodies were then assessed to determine binding to the different ApoE sequences by immunofluorescence of the yeast cell surface (Table 4). Because none of the anti-ApoE antibodies tested here recognize murine ApoE, the epitope was further narrowed down by comparison of the murine and human ApoE sequences as shown in Tables 4 and 5. DNA constructs containing different regions of ApoE4 with myc tag were transformed into yeast cells. Yeast cells were incubated with HJ15x to detect binding or anti-myc antibody to detect expression.

[3] = molecular target: T3, ApoE4 amino acids 1-210, expressed on …; test: as above
Procedure: as §1

[4] = molecular target: T4, ApoE4 amino acids 24-164, expressed on …; test: as above
Procedure: as §1

[5] = molecular target: T5, ApoE4 amino acids 54-164, expressed on …; test: as above
Procedure: as §1

[6] = molecular target: T8, recombinant alipidated human ApoE4 (human, UniProt P02649 19-317); test: direct ELISA on coated recombinant alipidated ApoE (0.5 ug/ml)
T8 construct: mature; full length recombinant protein made in E. coli or bought; biotinylated for SPR; position 112 is counted on the mature protein, not on the precursor entry; also called recApoE; non-lipidated ApoE4
T8 sequence (P02649 19-317 C130R): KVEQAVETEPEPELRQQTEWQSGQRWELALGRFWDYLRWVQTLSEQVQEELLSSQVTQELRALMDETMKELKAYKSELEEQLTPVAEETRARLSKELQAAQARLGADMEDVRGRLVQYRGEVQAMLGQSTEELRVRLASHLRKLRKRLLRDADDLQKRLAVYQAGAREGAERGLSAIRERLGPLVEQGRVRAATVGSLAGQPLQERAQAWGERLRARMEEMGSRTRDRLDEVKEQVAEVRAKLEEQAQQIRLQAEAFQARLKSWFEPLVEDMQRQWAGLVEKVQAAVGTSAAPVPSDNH
Procedure: (§2) ELISA dose response curves were generated for several anti-ApoE antibodies. Briefly, plates were coated overnight with full length recombinant alipidated ApoE2, ApoE3, or ApoE4 (0.5 μg/ml). The following days, plates were washed, blocked and then incubated with an anti-ApoE antibody. A goat, anti-mouse IgG-HRP antibody was used for secondary detection. Recombinant alipidated ApoE was either expressed solubly in E. coli and then purified, or purchased from a commercial supplier.

[7] = molecular target: T9, recombinant alipidated human ApoE3 (human, UniProt P02649 19-317); test: as above
T9 construct: mature; full length recombinant protein made in E. coli or bought
T9 sequence (P02649 19-317): as the sequence (P02649 19-317 C130R) above, with R112C counted along it
Procedure: as §2

[8] = molecular target: T8, recombinant alipidated human ApoE4; test: SPR (Biacore T200), biotinylated ApoE4 captured on anti-biotin mAb chip, antibody injected, 1:1 fit
Procedure: The affinity of several anti-ApoE antibodies for ApoE4 was determined by surface plasmon resonance using a BIAcore T200. Anti-biotin monoclonal mouse antibody was immobilized on a Biacore Series S CM5 sensor chip. Biotinylated recombinant alipidated ApoE4 was then captured on to the chip. Serial dilutions of each antibody were injected at a flow rate of 30 μl/min. Each sample was analyzed, for example, with 3-minute association and 10-minute dissociation. After each injection the chip was regenerated using 3 M MgCl₂ or another appropriate buffer. Binding response was corrected by subtracting the response units (RUs) from a flow cell capturing an irrelevant IgG at similar density. A 1:1 Languir model of simultaneous fitting of Kₒₙ and Koff was used for kinetics analysis. Recombinant alipidated ApoE4 was either expressed in soluble form in E. coli and then purified, or purchased from a commercial supplier.

murine ApoE [9] = molecular target: T1, murine ApoE; test: not described
[10] = molecular target: T6, ApoE4 amino acids 1-132, expressed on …; test: yeast display of myc-tagged ApoE4 fragment, antibody staining
Procedure: as §1

[11] = molecular target: T7, ApoE4 amino acids 24-125, expressed on …; test: as above
Procedure: as §1

[12] = molecular target: T10, recombinant alipidated human ApoE2 (human, UniProt P02649 19-317); test: direct ELISA on coated recombinant alipidated ApoE (0.5 ug/ml)
T10 construct: mature; full length recombinant protein made in E. coli or bought
T10 sequence (P02649 19-317 R176C): as the sequence (P02649 19-317 C130R) above, with R112C, R158C counted along it
Procedure: as §2

Binder	binding result (murine ApoE [1])	binding result [2]	binding result [3]	binding result [4]	binding result [5]	EC50 [6]	EC50 [7]	Kd [8]	koff [8]	kon [8]	binding result (murine ApoE [9])	binding result [10]	binding result [11]	EC50 [12]
B1	no binding	binds	binds	binds	binds	0.35 nM	0.13 nM	249 nM	0.00116 s⁻¹	4660 M⁻¹ s⁻¹	–	–	–	–
B2	–	binds	binds	binds	binds	1.1 nM	0.78 nM	–	–	–	no binding	–	–	–
B3	–	binds	binds	binds	binds	0.04 nM	0.05 nM	670 nM	0.00528 s⁻¹	7880 M⁻¹ s⁻¹	–	binds	binds	0.03 nM

— patent US20250145697A1 (WASHINGTON UNIVERSITY, published 2025)
